From the nanobody polyreactivity screen of Harvey et al. (2022)

Experiment: yeast display, Sf9 membrane polyspecificity reagent, FACS + sequencing; frameworks hold sequencing errors
Procedure, shortened: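 Nanobodies came from a synthetic yeast display library in Saccharomyces cerevisiae BJ5465, induced with galactose for 36–48 hours and stained for 1 hour at 4 °C with 10% biotinylated, detergent-solubilized Sf9 membrane reagent. Cells were enriched on streptavidin microbeads and then FACS-sorted, with low and high (top ~1%) gates set on anti-HA fluorescence for expression and streptavidin fluorescence for reagent binding. Each polyreactivity label reflects the gate a clone came from. Genes were amplified by colony PCR, sequenced by MiSeq 2 × 250 and filtered by CDR length.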

Row | Sequence | polyreactivity (PSR sort gate)
1 | HVQQQESGGGLVQAGGSLRLSCAASGYISVVIGMCWYRQSPGKERELVASIAYGAITYYTDRVKGRFTISRDYAKNTEYLQMNSLKAEDTAVYYCAADQPPLAYHWYWGQGTQATVSS | high polyreactivity
2 | HVQRVESGGGLVQAGASLRLSCAASGGIFSPNAMGWYRQAPGKERELVAAISSNGGSTNYADSVKGRFTISRDNAKNTVYLQMNSLKPEDTAVYYCAGLQKRRSYWRPFYWGQGTQVTVSS | low polyreactivity
3 | IIQAGGSLRLSCAASGGTFFVYMGWYRQAPGKERELVADISGFGGGTYYADSVKGRFTISRDNAKNTVYLQMNSLKPEYTAVYYCATVVPTGIIRMYWGQGTQVTVSS | low polyreactivity
4 | IIQEGGSLRLSCAASGRTFSGYAMGWYRQAPGKERELIADITSGGSTYYADSVKGRFTISRDNAKNTVYLQMNSLKPEDTAVYYCAAERQIRSFWSSRTYEFGYWGQGTQVTVSS | low polyreactivity
5 | KFQLVESGGGLVQAVGSLRLSCDASGRTFYYYDMGWYRQAPGKERELVAAITWDGGRTYYADSVMGRFTISRDNAKNTVYLQMNSLKPEDTAVYYCNADDFFEILGECTLMDYWGQGTQVTVSS | low polyreactivity
6 | KVHLVDSGGRLVQAGGSLRLSCSASGSIFYVYAMGWYRQAPGTERELVATISSSAGSTYYAYSVKGRFTISRDNAKNTVNLQMYSLNPVDTAVYYCYADSFLSWVYRYVYYVSGLWGQGTQVTVSS | low polyreactivity
7 | KVQLVESGAGLVQAGGSLRLSCAASGITFVRYVMGWYRQAPGKERELVAAISNSGGRTYYADSVKGRFTISRDNAKNTVYLQMNSLKPEDTAVYYCARRAGSYPYGYTGYDYWGQGTLVTVSS | high polyreactivity
8 | KVQLVESGGGLVQAGGSLRISCAASGSIFGYYTMGWYRQAPGKERELVARITRGGSTYYADSVKGRFTISRDNAKNTVYLHMNSLKPEDTAVYFCNADSRYRYEYWGLGTQVTVSS | low polyreactivity
9 | KVQLVESGGGLVQAGGSLRITCAASGSNQASNAMGWYRQAPGKERELVAAIRVSGASTYYADSVKGRFTISRDNAKNTVYLQMKSLKPEYNAVYYCAADYQFGVIYYYWGQGTQVTLSS | low polyreactivity
10 | KVQLVESGGGLVQAGGSLRLSCAASGLTFSYYAMGWYRQAPGKERELVAAITRSGTRTYYADSVKGRFTISRDNAKNTVYLQMNSLKPEDTAVYYCARYLRGDFQQGEHWGQGTQVTVSS | high polyreactivity
11 | KVQLVESGGGLVQAGGSLRLSCAASGSIFGDNAMGWYRQAPGKERELVAAINYNGGRTYYADSVKGRFTISRDNAKNTVYLQMNSLKPEDTAVYYCAKDNYQAPVQQYPFDYWGQGSQVTVSS | low polyreactivity
12 | KVQLVESGGGLVQAGGSLRLSCAASGSIFYYYAMGWYRQAPGKERELVAAISERGAYVLRRPVKGRFTISRDNAKNTVYLQMNSLKPEDTAVYYCAVGFNFQGWRYDYWGQGTQVNVSS | high polyreactivity
13 | KVQLVESGGGLVQAGGSLRLSCAASGSTFPPNAMGWNRQAPGKERELVAVISYSDGSTYYADSVKGRFTISRDNAKNTVYLQMNSLKPEDTAVYYCAAYSGYGGVSMYYWGQGTQVTVSS | low polyreactivity
14 | KYYADSVKGRFTISRDNAKNTVYLQMNSLNPEDTAVYYCNAGYYISFNPYDYWGQGTQVTVSW | low polyreactivity
15 | LEQLVESGGGLVHAGGSLRLSCAASRSNFPQYTLGWNRQAPVKERELVAAISNYGSSTYYADSEKGRFTISRDYAKNSVSLQMNSLKPEDTAVYECNADDYGYYPGVNYWGQGTQVTVSS | low polyreactivity
16 | LVQLQESGGGLVLAGGGLRLSCAASGNIFTYVIMGWYRQPPGKERELVAAITYGTITNYADSVKGPFTISRDNAKNTVYLQMNCLKPEDTAVYHCAVQSPRIEPRLYYWGQGTQVTVSS | high polyreactivity

Row | Sequence | polyreactivity (PSR sort gate)
17 | LVQLQESRGGLVLAGGGLRLSCPESVNIFTYVIMGWYRQQPGKERELVAAITYGTFTNYADSVKGPFTISRDNAKNTVYLHMNCLKPEDTAVYHCAVQSPLIEPRLYYWGQGTQVTVSS | high polyreactivity
18 | LVQLVESGGGLVHAGGSLRLSCAASGSTFNIYAMGWYRQAPGKERELVAAISSSGGRTYYADSVKGRFTISRDNAKNTVYFQMIRLKPEDTAVYYCAARSRRVSLIRDSYGYWGQGTQVNVSS | high polyreactivity
19 | LVQLVESGGGLVQAGGSLRLSCAASGNTFVSNAMGWYRQAPGKERELVAAIDSGGSTNYADSVKGRFTISRDNAKNTVYLQMNSLKPDDTAVYYCTRTSVYYYYWGQGTQVTVSS | low polyreactivity
20 | LVQLVESGGGLVQAGGSLRLSCAASGRIFVGYAMGWFRQAPGKERELVAAISRRAGRTYYADSVKGRFTLSRDNAKNTVYLQMNSLKPEDTPVYYCIAPRYYPKAGFDYWGQGTQVTVSS | high polyreactivity
21 | LVQLVESGGGLVQAGGSLRLSCAASGYIIGFYVMGWYRQAPGKERELVAVIDYGSDNTYYADSVLGRYTISRDNAKNTVYLQMNSLKPEETAVYYCAAEWYKSNYYDYDTWGQGTQVTVSS | high polyreactivity
22 | LVQLVESRGGLVQAGGSLRLSCAASGRTFAWYAMGWYRPAPGKERELVAAISNVGSTYYADTVKGRFTISRDNAKNTVYLQMNSLKPEDTAVYYCNPDAVSTDGREYWGQGTQVTVSS | low polyreactivity
23 | LVQLVETGGGLVQAGGSLRLSCAASGSVFYSYAMGWYRQAPGKERELVAAISFSGGSTYYADSVKGRFTISRDNAKNTVYLQMNSLKPEDTAVYYCNTLSADTFDYWGQGTQVTVSS | low polyreactivity
24 | LVQLVQSGGGLVQAGGSLRLSCAASGRTFIGYAMGWYRQAPGKERELVAAITSDGGTNYADSVKGRFTISRDNAKNTVNLLMNSLKPEDTAVYDCAARRRVSYHLYGYWGQGTQVTVSS | high polyreactivity
25 | NVQLVESGGGLVQAGGSLRLSCAASGSTFDYYDMGWYRQAPWKERELVATITSGGSTNYADSVKGRFTITRDNAKNTVYLLMHSLKPEDTAVYYCDARIRSVVPFDMDYWGQGTQVTVSW | low polyreactivity
26 | PDQLVESGGGLVQAGGSLRLSCAASGFIFTYYAMGWYRQAPGKERELVAAITRRGGSTYYADSVKGRFTISRDNAKNTVYLQMNRLKPEDTAVYYCNKVDQGRYGYWGQGTQVTVSS | high polyreactivity
27 | PLQLVESGGGLVQAGGSLRLSGAASGIIFNQYPMGWYRQAPGKEREFVPAISSSGGSTYYADSVKGRFTISRDYAKNTVYLQMNSLKPADTAVYFCSADSPGWTYTSRSYDYWGQGTQVTLSS | low polyreactivity
28 | PVQLEESGGGLDQAGGSLRISCAASGRIFWAKAMGWYRQAPGKERELVAAINRRTGITYYADSVKGRFTISRDNAKNTVYFQMNSLKPEDTAVYYCAADWRTKCYDSLGQGTQVTVSS | high polyreactivity
29 | PVQLQQSGSGLVQAGGSLRLSCAASGYISLGDNKGWYRQAPGKEREFDATISVGGITYYVDSVKGPFTISRDIAKNTVYLQMNSVKPEDTAVYYCAALDIYYLRYYYWGQGTQVTLSS | low polyreactivity
30 | PVQLVESGGGLGQAGGSLRLSCAASGIIFNDYAMGWYRQAPGKERELVASIRSNTGSTNYADSVKGRFTISRDYAKNTVYLPMNSLKPEETAVSDCAADYLPDYGPRGGYWGQGTQVTVSS | low polyreactivity
31 | PVQLVESGGGLGQAGGSLRLSCAASGLTFGRYAMGWYRQAPGKERELVAAITRSGGRTYYADSVKGRFTISRDNAKNTVYLQMNSLKPEDTAVYYCNTRSHLGAPGDPDDYWGQGTQVTVTS | high polyreactivity
32 | PVQLVESGGGLGQAGGSLRLSCAASGRIFYLYAMGWYRQAPGKERELVATIDSSGDSTFYADSVKGRFTISRDNAKNTVYLQMNSLKPEDTAVYNCAADEVSSYDYGYKGRYDYWGQGTQVTVSS | low polyreactivity
